Measurements taken from patent US20230234997A1, “Compositions and Methods for the Treatment of Synucleinopathies” (SOLA BIOSCIENCES LLC, priority 2020, published 2023).
Residues, ends and D or L forms follow the SMILES beside them. *: point of attachment. Cbz = O=C(OCc1ccccc1)*

Legend:
Format in all cases: cell-based
[1] = target: T1, mutant (A53T) α-synuclein (Homo sapiens, UniProt P37840, A53T); experiment: ELISA of aggregated α-synuclein (Syn-O4 capture) in lysates of transfected HEK293 cells
T1 construct: expressed in transfected cells; host or cells: HEK293
Experimental: Cells were also treated with either Bafilomycin A1, an inhibitor of late phase autophagy (10 nM and 100 nM), or MG132, a proteasome inhibitor (0.1 μM and 1 μM). Aggregated synuclein in cell lysates were determined by ELISA using an anti-aggregated synuclein antibody.
Expression vector plasmids encoding various protein constructs were transfected into HEK293 cells with Lipofectamine 3000 transfection reagent (Thermo Fisher Scientific). One day after transfection, culture medium was replaced with fresh medium containing bafilomycin al (BFA) or MG132, and cells were incubated for additional 48 hours. Cells were lysed in lysis buffer (20 mM Tris, pH 7.4, 150 mM NaCl, 1 mM EDTA, 0.1% NP-40) supplemented with protease inhibitor cocktail (Complete Protease Inhibitor Cocktail; Sigma) and 2 mM PMSF. After brief sonication, cell lysates were analyzed in ELISA or immunoblotting assay.
The aggregation status of expressed α-synuclein was monitored with α-synuclein aggregate-specific antibody Syn-O4 (BioLegend). Syn-O4 is a conformation-specific monoclonal antibody that recognizes specifically α-synuclein aggregates but not the soluble, monomeric form of the protein^58. Microtiter plate wells were coated with Syn-O4 overnight at 4° C., and after coating, the wells were washed three times with PBS, blocked for one hour with PBS containing 1% BSA, and washed again with PBS. […]

[2] = target: T1, mutant (A53T) α-synuclein; experiment: Immunoblot of total α-synuclein in lysates of transfected HEK293 cells
Experimental: (§1) FIG. 3A: Wild type (WT) α-synuclein (Syn(WT): bars 1-3) or mutant α-synuclein (Syn(A53T): bars 4-6) was expressed alone or with a Flag epitope-tagged fusion protein comprising the J-domain DnaJB1 and a α-synuclein-binding domain (J-SynBP1: bars 2 and 5) or a control fusion protein construct comprising a mutated J-domain (containing a P33Q substitution) and a α-synuclein-binding peptide (J(MT)-SynBP1: bars 3 and 6) in HEK293 cells. Two days later, cells were homogenized in Tris buffer (10 mM Tris, pH7.4, 140 mM NaCl, 1 mM EDTA supplemented with protease inhibitor cocktail). Aggregation of mutant α-synuclein levels were quantified with sandwich ELISA, in which aggregated α-synuclein proteins were captured by coated-Syn-O4 antibody, followed by detection with HRP-conjugated anti-α-synuclein antibody (BioLegend: A15115A). FIG. 3B Lysates were prepared from HEK293 cells transiently transfected with wildtype Syn(WT) (lanes 1-3) or mutant Syn(A53T) (lane 4-6) alone or co-expressed with the fusion protein constructs. After brief sonication, the cell lysate was subjected to SDS-PAGE/immuno blotting with anti-α-synuclein antibody (Ab-2: top panel), Flag antibody (middle panel) or anti-Tubulin antibody (bottom panel).
Cells were transfected with either wildtype (lane 2) or mutant (lanes 3-8) α-synuclein, and also transfected with the JB1-SynBP1 fusion protein (lanes 4-8). […]
(§2) Expression vector plasmids encoding various protein constructs were transfected into HEK293 cells with Lipofectamine 3000 transfection reagent (Thermo Fisher Scientific). Cell lysates were analyzed for expressed proteins using immunoblot assays. […] After brief sonication, the samples were analyzed for expressed proteins using immunoblot assays. […]
(§3) Expressed proteins were detected using a chemiluminescent signal. […]
Expression vector plasmids encoding various protein constructs were transfected into HEK293 cells with Lipofectamine 3000 transfection reagent (Thermo Fisher Scientific). […] After brief sonication, cell lysates were analyzed in ELISA or immunoblotting assay.

wildtype α-synuclein [3] = target: T2, wildtype α-synuclein (Homo sapiens, UniProt P37840); experiment: as above; conditions: wildtype Syn(WT), lanes 1-3
T2 construct: expressed in transfected cells; host or cells: HEK293
Experimental: as §1, with “FIG. 3B Lysates were prepared from HEK293 cells transiently transfected with wildtype Syn(WT) (lanes 1-3) or mutant Syn(A53T) (lane 4-6) alone or co-expressed with the fusion protein constructs. After brief sonication, the cell lysate was subjected to SDS-PAGE/immuno blotting with anti-α-synuclein antibody (Ab-2: top panel), Flag antibody (middle panel) or anti-Tubulin antibody (bottom panel).” left out
as §2, §3

wildtype α-synuclein [4] = target: T2, wildtype α-synuclein; experiment: ELISA of aggregated α-synuclein (Syn-O4 capture) in lysates of transfected HEK293 cells; conditions: co-expression with wildtype α-synuclein, ELISA on cell lysates, bars 1-3
Experimental: as §1, with “FIG. 3B Lysates were prepared from HEK293 cells transiently transfected with wildtype Syn(WT) (lanes 1-3) or mutant Syn(A53T) (lane 4-6) alone or co-expressed with the fusion protein constructs. After brief sonication, the cell lysate was subjected to SDS-PAGE/immuno blotting with anti-α-synuclein antibody (Ab-2: top panel), Flag antibody (middle panel) or anti-Tubulin antibody (bottom panel).” left out
as §2
The aggregation status of expressed α-synuclein was monitored with α-synuclein aggregate-specific antibody Syn-O4 (BioLegend). […]

[5] = target: T3, mutant (A53T) α-synuclein phosphorylated at Ser129 (Homo sapiens, UniProt P37840, A53T); experiment: Level of phosphorylated α-synuclein (Ser129) on co-expression of fusion protein constructs; conditions: Table 13, wildtype alone = 100%, mutant alone = 92.1%
T3 construct: expressed in transfected cells

[6] = HEK293, BFA at either 10 nM or 100 nM
[7] = HEK293, MG132 (0.1 μM and 1 μM)

Question: For `CO/C1=C\C(C)=C\[C@@H](C)[C@@H](O)[C@@H](C)C/C(C)=C/C=C/[C@H](OC)[C@@H]([C@@H](C)[C@@H](O)[C@H](C)[C@@]2(O)C[C@@H](O)[C@H](C)[C@@H](C(C)C)O2)OC1=O` [BFA, Bafilomycin A1, reference compound], which “effect of inhibitor on aggregated α-synuclein in cells expressing mutant α-synuclein and construct 1” value [1, 6] is on record?
Answer: restoration of total and aggregated α-synuclein to levels matching cells expressing mutant α-synuclein alone

Question: What about the “effect of inhibitor on total α-synuclein in cells expressing mutant α-synuclein and construct 1” value [2, 6] of the same molecule?
Answer: restoration of total and aggregated α-synuclein to levels matching cells expressing mutant α-synuclein alone

Question: For `CC(C)C[C@@H](C=O)NC(=O)[C@H](CC(C)C)NC(=O)[C@H](CC(C)C)NC(=O)OCc1ccccc1` [MG132, reference compound] (Cbz-Leu-Leu-Leu-aldehyde), which “effect of inhibitor on aggregated level of α-synuclein in cells expressing mutant α-synuclein and construct 1” value [1, 7] is on record?
Answer: little effect

Question: And the “effect of inhibitor on total level of α-synuclein in cells expressing mutant α-synuclein and construct 1” value [2, 7]?
Answer: little effect

Question: “Construct 2: Same as construct 1, but containing a P33Q mutation within the J domain (control)” was tested. Which “overall level of α-synuclein (FIG. 3B, Western blot)” value (wildtype α-synuclein [3]) did it give?
Answer: relatively similar levels

Question: And the “overall level of α-synuclein (FIG. 3B, Western blot)” value ([2]; HEK293 cells, mutant Syn(A53T), lanes 4-6)?
Answer: relatively similar levels

Question: And the “amount of detectable aggregated α-synuclein (FIG. 3A)” value (wildtype α-synuclein [4])?
Answer: higher overall aggregation

Question: With “Construct 10: J domain from human DnaJB1 fused to 4XGGGGS linker, in turn, fused on its C-terminus to QBP1” as the molecule, how does the “ability to reduce mutant (A53T) synuclein aggregation (Table 11)” value ([1]; Mutant (A53T)) read?
Answer: potently reduce α-synuclein aggregation

Question: With “Construct 11: J domain from human DnaJB1 fused on its C-terminus to SynBP1 (with flexible GGGGS linker)” as the molecule, how does the “Phosphorylated α-synuclein” value [5] read?
Answer: 19.1%

Question: Which “Phosphorylated α-synuclein” value [5] does the source give for “Construct 12: J domain from human DnaJB1 fused on its C-terminus to SynBP1 (with rigid EAAAK linker)” here?
Answer: 23.1%

Question: How did the “Phosphorylated α-synuclein” value [5] turn out when “Construct 13: J domain from human DnaJB1 fused on its C-terminus to SynBP1 (no linker)” was run?
Answer: 4.5%
